B1: Blunt ended DNA (dsDNA)
DNA 1: CCATGGCTCCTGAGCTAGCTGCAGTAGCCTAAAGGATGAAACTAGGATCTTATGCTCCAG
DNA 2: CTGGAGCATAAGATCCTAGTTTCATCCTTTAGGCTACTGCAGCTAGCTCAGGAGCCATGG
B2: Reference DNA (dsDNA)
DNA 1: CCATGGCTCCTGAGCTAGCTGCAGTAGCCTAAAGGATGAAACTAGGATCTTATGCTCCAGTTTT
DNA 2: CTGGAGCATAAGATCCTAGTTTCATCCTTTAGGCTACTGCAGCTAGCTCAGGAGCCATGGTTTT

How the values were obtained:
RecBΔNucCD [1] = target: T1, RecBΔNucCD (Escherichia coli, UniProt P08394;P07648;P04993 1-929;1-1122;1-608); experiment: ITC
RecBCD [2] = target: T2, RecBCD (Escherichia coli, UniProt P08394;P07648;P04993 1-1180;1-1122;1-608); experiment: fluorescence competition
RecBΔNucCD [3] = target: T1, RecBΔNucCD; experiment: fluorescence competition
RecBΔNucCD [4] = target: T1, RecBΔNucCD; experiment: ITC; remark: listed apart in the source
RecBCD [5] = target: T2, RecBCD; experiment: fluorescence titration
RecBΔNucCD [6] = target: T1, RecBΔNucCD; experiment: fluorescence titration
RecBΔNucCD [7] = target: T1, RecBΔNucCD; experiment: fluorescence titration; remark: listed apart in the source

| Binder | Ka (RecBΔNucCD [1]) [M⁻¹] | Ka (RecBCD [2]) [M⁻¹] | Ka (RecBΔNucCD [3]) [M⁻¹] | Ka (RecBΔNucCD [4]) [M⁻¹] | Ka (RecBCD [5]) [M⁻¹] | Ka (RecBΔNucCD [6]) [M⁻¹] | Ka (RecBΔNucCD [7]) [M⁻¹] |
| --- | --- | --- | --- | --- | --- | --- | --- |
| B1 | 1.2e+07 | 1.4e+07 | 4.7e+07 | > 1e+09 |  |  |  |
| B2 |  |  |  |  | 3.2e+07 | 1.6e+08 | > 2e+09 |
